Where a chain is given by its changes, count along the chain named. Where two headings read alike, the source gives them in different places.
B1: H1L11 (antibody, human IgG1, kappa, V domains shown)
VH: QVQLVQSGAEVKKPGASVKVSCKASGYTFTSYWMHWVRQAPGQGLEWMGNINPSNGGTNYNEKFKSRVTMTRDTSTSTVYMELSSLRSEDTAVYYCELGQGYWGQGTLVTVSS
VL: DIVITQSPLSLPVTLGQPASISCRSSKSLLYKDGKTYLNWFQQRPGQSPQLLIYLMSTRASGVPDRFSGGGSGTDFTLKISRVEAEDVGVYYCQQLVEYPLTFGQGTKLEIKR
notes: Earlier humanised 2A10
B2: H6L18 (antibody, human IgG1, kappa, V domains shown)
VH: B1 VH with M48I, V68A, V79A
VL: B1 VL with I4M, S7D, L11N, A19V, Q42L, P64S, G70S
notes: Tested as CHO-K1 supernatant
B3: H16L16 (antibody, human IgG1, kappa)
heavy: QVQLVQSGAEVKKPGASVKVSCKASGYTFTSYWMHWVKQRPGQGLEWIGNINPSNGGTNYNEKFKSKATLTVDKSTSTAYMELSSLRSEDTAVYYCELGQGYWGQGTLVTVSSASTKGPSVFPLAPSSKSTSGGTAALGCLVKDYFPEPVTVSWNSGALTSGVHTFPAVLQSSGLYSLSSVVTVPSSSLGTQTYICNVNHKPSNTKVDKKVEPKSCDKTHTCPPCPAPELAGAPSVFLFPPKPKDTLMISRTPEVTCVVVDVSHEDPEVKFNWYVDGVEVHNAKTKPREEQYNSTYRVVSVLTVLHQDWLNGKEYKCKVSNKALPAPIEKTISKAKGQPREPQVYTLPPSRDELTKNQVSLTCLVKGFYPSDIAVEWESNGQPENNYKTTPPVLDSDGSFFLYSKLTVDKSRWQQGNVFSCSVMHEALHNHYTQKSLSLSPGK
light: DIVMTQSPLSNPVTLGQPVSISCRSSKSLLYKDGKTYLNWFLQRPGQSPQLLIYLMSTRASGVPDRFSGGGSGTDFTLKISRVEAEDVGVYYCQQLVEYPLTFGQGTKLEIKRTVAAPSVFIFPPSDEQLKSGTASVVCLLNNFYPREAKVQWKVDNALQSGNSQESVTEQDSKDSTYSLSSTLTLSKADYEKHKVYACEVTHQGLSSPVTKSFNRGEC
notes: Humanised 2A10; Human gamma1 mutated constant region and human kappa; also called H16L16 FL
B4: H15L18 (antibody, human IgG1, kappa, V domains shown)
VH: QVQLVQSGAEVVKPGASVKLSCKASGYTFTSYWMHWVKQRPGQGLEWIGNINPSNGGTNYNEKFKSKATLTVDTSSSTAYMELSSLRSEDSAVYYCELGQGYWGQGTLVTVSS
VL: B1 VL with I4M, S7D, L11N, A19V, Q42L, P64S, G70S
notes: Tested as CHO-K1 supernatant
B5: H6L13 (antibody, human IgG1, kappa, V domains shown)
VH: B1 VH with M48I, V68A, V79A
VL: B1 VL with I4M
notes: Humanised 2A10; Human gamma1 mutated constant region and human kappa; also called H6L13 FL
B6: H15L13 (antibody, human IgG1, kappa, V domains shown)
VH: B4 VH
VL: B1 VL with I4M
notes: Tested as CHO-K1 supernatant
B7: H18L18 (antibody, human IgG1, kappa, V domains shown)
VH: B4 VH with T74K
VL: B1 VL with I4M, S7D, L11N, A19V, Q42L, P64S, G70S
notes: Tested as CHO-K1 supernatant
B8: H18L16 (antibody, human IgG1, kappa, V domains shown)
VH: B4 VH with T74K
VL: B1 VL with I4M, L11N, A19V, Q42L
notes: Humanised 2A10; also called H18L16 FL
B9: H16L18 (antibody, human IgG1, kappa)
heavy: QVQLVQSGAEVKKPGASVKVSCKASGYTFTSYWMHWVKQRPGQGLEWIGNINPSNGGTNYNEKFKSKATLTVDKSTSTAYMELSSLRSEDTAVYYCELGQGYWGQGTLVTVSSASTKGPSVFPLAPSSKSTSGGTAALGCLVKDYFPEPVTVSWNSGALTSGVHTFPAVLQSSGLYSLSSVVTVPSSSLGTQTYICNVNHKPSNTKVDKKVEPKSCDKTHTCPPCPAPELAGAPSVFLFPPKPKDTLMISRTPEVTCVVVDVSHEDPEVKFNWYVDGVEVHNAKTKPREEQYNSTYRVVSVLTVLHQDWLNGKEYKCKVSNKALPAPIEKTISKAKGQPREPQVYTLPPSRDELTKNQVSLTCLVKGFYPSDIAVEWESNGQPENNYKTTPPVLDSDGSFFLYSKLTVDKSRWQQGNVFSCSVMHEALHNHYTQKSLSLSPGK
light: B3 light with S7D, P64S, G70S
notes: Humanised 2A10; Human gamma1 mutated constant region and human kappa; also called H16L18 FL
B10: H14L16 (antibody, human IgG1, kappa, V domains shown)
VH: B4 VH with R40A, K67R, V72R, S76T, S91T
VL: B1 VL with I4M, L11N, A19V, Q42L
B11: HcLc (chimera of 2A10: murine 2A10 VH and VL with human IgG constant regions) (antibody, V domains shown)
VH: B4 VH with V5Q, S7P, A9T, V11L, T74K, E82Q, R87T
VL: DIVITQDELSNPVTSGESVSISCRSSKSLLYKDGKTYLNWFLQRPGQSPQLLIYLMSTRASGVSDRFSGSGSGTDFTLEISRVKAEDVGVYYCQQLVEYPLTFGAGTKLELKR
notes: Human gamma1 mutated constant region and human kappa; also called 2A10 chimeric antibody; the chimera
B12: murine monoclonal antibody 2A10 (antibody, V domains shown)
VH: B4 VH with V5Q, S7P, A9T, V11L, T74K, E82Q, R87T, L108T, V109L
VL: DIVITQDELSNPVTSGESVSISCRSSKSLLYKDGKTYLNWFLQRPGQSPQLLIYLMSTRASGVSDRFSGSGSGTDFTLEISRVKAEDVGVYYCQQLVEYPLTFGAGTKLELK
notes: Murine antibody; also called donor antibody

Assays:
[1] = molecular target: T1, GST-human NOGO-A56 (human, UniProt P08515 1-218 = GST); experiment: SPR (Biacore 3000), GST-human NOGO-A56 on CM5, antibody as analyte; single experiment
T1 construct: GST-tagged fusion expressed in E. coli BL21 and purified on glutathione-sepharose; coated on ELISA plates or amine-coupled to a CM5 chip; also called hNOGO; recombinant human NOGO
T1 sequence (P08515 1-218, tags or fused parts left off): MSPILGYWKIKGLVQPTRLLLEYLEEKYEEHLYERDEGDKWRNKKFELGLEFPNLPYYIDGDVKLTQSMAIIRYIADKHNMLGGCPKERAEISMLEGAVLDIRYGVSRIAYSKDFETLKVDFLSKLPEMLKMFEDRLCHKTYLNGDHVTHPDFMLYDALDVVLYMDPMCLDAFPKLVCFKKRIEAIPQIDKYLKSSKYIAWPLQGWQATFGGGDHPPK
Method: (§1) The binding kinetics of the anti-NOGO monoclonal antibody (mAb) to recombinantly expressed human NOGO-A (GST-human NOGO-A56) was analysed using the Biacore3000 biosensor. The hNOGO-A chip was prepared as follows:
(§2) hNOGO (GST-human NOGO-A56) was immobilised to a CM5 chip by primary amine coupling using the Biacore Wizard program designed for targeted immobilisation levels. The CM5 sensor surface was activated by passing a solution of 50 mM N-hydroxy-succinimide (NHS) and 200 mM N-ethyl-N′-dimethylaminopropyl […] (EDC). Then hNOGO in sodium acetate buffer, pH5.0 or pH 4.5, was passed over the chip and immobilised. After immobilisation was complete any still activated esters were blocked by an injection of 1M ethanolamine hydrochloride, pH8.5.
(§3) The anti-NOGO mAbs were diluted down in HBS-EP (10 mM HEPES, pH 7.4, 150 mM NaCl, 3 mM EDTA, and 0.005% P-20 surfactant) and binding studies were carried out at range of defined antibody concentrations. All runs were referenced against a blanked sensor surface (one that had been activated and blocked as described earlier but had no addition of ligand). Analysis of binding was carried out using the BIAevaluation kinetic analysis software version 4.1. Biacore analysis of other antibodies of the invention essentially followed the same protocol as described herein.

[2] = molecular target: T1, GST-human NOGO-A56; experiment: SPR (Biacore) off-rate ranking, CHO-K1 transient supernatant over GST-human NOGO-A56 chip; mean (SD) of three runs
Method: as §2
(§4) The hNOGO chip was prepared as for kinetic analysis. Cell supernatants where taken directly from transient transfections of CHO-K1 cells. These were passed directly over the sensor surface and the interaction measured. A mock transfected cell supernatant was used for double referencing to remove any artefacts due to the tissue culture media. All runs were referenced against a blanked sensor surface (one that had been activated and blocked as described earlier but had no addition of ligand). Analysis of binding was carried out using the BIAevaluation kinetic analysis software version 4.1.

[3] = molecular target: T1, GST-human NOGO-A56; experiment: SPR (Biacore 3000), GST-human NOGO-A56 amine-coupled to CM5, antibody as analyte; mean (SD) of four experiments
Method: as §1, §2, §3

[4] = molecular target: T1, GST-human NOGO-A56; experiment: SPR (Biacore) off-rate ranking, CHO-K1 transient supernatant over GST-human NOGO-A56 chip; single experiment
Method: as §2, §4

[5] = molecular target: T1, GST-human NOGO-A56; experiment: ELISA, coated GST-human NOGO-A56, transfection supernatant, anti-human kappa-HRP, OD 490 nm
Method: (§5) GST-human NOGO-A56 (SEQ ID: 76) at 1 μg/ml in PBS was coated onto Nunc Immunosorp plates (100 μl per well) at 4° C. overnight. Wells were rinsed once with TBS+0.05% Tween (TBST) then incubated with 2% BSA in TBST to block non-specific binding sites at room temperature for 1 hour. Antibodies were diluted in TBST+2% BSA to 10 μg/ml and 1/2 dilutions made from this. Antibodies were added to wells in duplicate and incubated at room temperature for 1 hour. Wells were washed three times with TBST then incubated with anti-human kappa peroxidase conjugate (1:2000) for 1 hour. The wells were washed three times with TBST and then incubated with 100 μl OPD peroxidase substrate (Sigma) per well for 10 minutes. The colour reaction was stopped by the addition of 25 μl concentrated H₂SO₄. Optical density at 490 nm was measured using a plate reader. Background values read from wells with no antibody were subtracted.

[6] = molecular target: T1, GST-human NOGO-A56; experiment: as above; remark: listed apart in the source
Method: as §5

[7] = molecular target: T1, GST-human NOGO-A56; experiment: as above; remark: listed apart in the source
Method: as §5

[8] = molecular target: T1, GST-human NOGO-A56; experiment: as above; remark: listed apart in the source
Method: as §5

[9] = molecular target: T1, GST-human NOGO-A56; experiment: as above; remark: listed apart in the source
Method: as §5

[10] = molecular target: T1, GST-human NOGO-A56; experiment: as above; remark: listed apart in the source
Method: as §5

[11] = molecular target: T1, GST-human NOGO-A56; experiment: SPR (Biacore 3000), GST-human NOGO-A56 on CM5, antibody as analyte; single experiment; remark: listed apart in the source
Method: as §2, §3

[12] = molecular target: T1, GST-human NOGO-A56; experiment: ELISA, coated GST-human NOGO-A56, transfection supernatant, anti-human kappa-HRP, OD 490 nm; remark: listed apart in the source
Method: as §5

[13] = molecular target: T1, GST-human NOGO-A56; experiment: SPR (Biacore) off-rate ranking, CHO-K1 transient supernatant over GST-human NOGO-A56 chip; mean (SD) of two runs
Method: as §2, §4

[14] = molecular target: T1, GST-human NOGO-A56; experiment: SPR (Biacore 3000), GST-human NOGO-A56 on CM5, antibody as analyte; mean (SD) of two experiments
Method: as §2, §3

[15] = molecular target: T1, GST-human NOGO-A56; experiment: SPR (BiaCore kinetic analysis), human NOGO

Binder	Kd [1]	koff [1]	kon [1]	koff [2]	Kd [3]	koff [3]	kon [3]	koff [4]	EC50 (read off the curve) [6]	EC50 (read off the curve) [10]	further results
B1	21.3 nM	0.0284 s⁻¹	1.33e+06 M⁻¹ s⁻¹	0.0403 s⁻¹	18.6 nM	0.0314 s⁻¹	1.73e+06 M⁻¹ s⁻¹	–	–	–	–
B2	–	–	–	–	–	–	–	0.0106 s⁻¹	~0.5 µg/mL	–	EC50 (read off the curve) [5]: ~0.4 µg/mL
B3	1 nM	0.00569 s⁻¹	5.47e+06 M⁻¹ s⁻¹	0.00664 s⁻¹	1.26 nM	0.00554 s⁻¹	4.37e+06 M⁻¹ s⁻¹	–	–	–	EC50 (read off the curve) [7]: ~0.06 µg/mL; EC50 (read off the curve) [8]: ~0.06 µg/mL; EC50 (read off the curve) [9]: ~0.04 µg/mL
B4	–	–	–	–	–	–	–	0.00594 s⁻¹	–	~0.04 µg/mL	–
B5	7.3 nM	0.013 s⁻¹	1.77e+06 M⁻¹ s⁻¹	0.0173 s⁻¹	7.68 nM	0.0137 s⁻¹	1.82e+06 M⁻¹ s⁻¹	–	–	–	Kd [11]: 7.9 nM; koff [11]: 0.0233 s⁻¹; kon [11]: 2.95e+06 M⁻¹ s⁻¹; EC50 (read off the curve) [12]: ~0.2 µg/mL
B6	–	–	–	–	–	–	–	0.00965 s⁻¹	–	–	EC50 (read off the curve) [7]: ~0.05 µg/mL
B7	–	–	–	–	–	–	–	0.0058 s⁻¹	–	–	EC50 (read off the curve) [12]: ~0.1 µg/mL
B8	–	–	–	–	1.62 nM	0.00586 s⁻¹	3.64e+06 M⁻¹ s⁻¹	–	~0.4 µg/mL	–	koff [13]: 0.00687 s⁻¹; EC50 (read off the curve) [8]: ~0.04 µg/mL; EC50 (read off the curve) [5]: ~0.4 µg/mL
B9	–	–	–	0.00609 s⁻¹	1.33 nM	0.00552 s⁻¹	4.18e+06 M⁻¹ s⁻¹	–	~0.4 µg/mL	~0.03 µg/mL	EC50 (read off the curve) [7]: ~0.06 µg/mL; EC50 (read off the curve) [8]: ~0.04 µg/mL
B10	3.6 nM	0.00739 s⁻¹	2.05e+06 M⁻¹ s⁻¹	–	–	–	–	0.0089 s⁻¹	–	~0.08 µg/mL	EC50 (read off the curve) [9]: ~0.09 µg/mL
B11	1.6 nM	0.00412 s⁻¹	2.62e+06 M⁻¹ s⁻¹	–	1.41 nM	0.00378 s⁻¹	2.7e+06 M⁻¹ s⁻¹	–	~0.2 µg/mL	~0.05 µg/mL	koff [13]: 0.00376 s⁻¹; EC50 (read off the curve) [9]: ~0.02 µg/mL; EC50 (read off the curve) [5]: ~0.2 µg/mL; Kd [14]: 0.995 nM; koff [14]: 0.00346 s⁻¹; kon [14]: 3.52e+06 M⁻¹ s⁻¹; EC50 (read off the curve) [12]: ~0.09 µg/mL
B12	–	–	–	–	–	–	–	–	–	–	Kd [15]: ~1 nM; koff [15]: ~0.00184 s⁻¹

Reference: patent US20060029603A1 (GlaxoSmithKline, published 2006)
